Laboratory results taken from paper PMC7367873, “Dissecting the sequence determinants for dephosphorylation by the catalytic subunits of phosphatases PP1 and PP2A” (Nature Communications, 2020).

Tests used:
[1] = tested on: GFP-14-3-3β; assay: GFP-14-3-3β co-IP with LC-MS/MS, untreated GFP-14-3-3β versus GFP control (14-3-3 interactome); type: binding, human; details: untreated vs GFP; label-free quantification
[2] = tested on: GFP-14-3-3β and its binding proteins; assay: GFP-14-3-3β co-IP with LC-MS/MS label-free quantification, untreated versus PP1c-treated; set-up: species or system human; details: PP1 vs untreated; label-free quantification

Row | Molecule | Difference (log2), untreated vs GFP [1] [log2] | Difference (log2), PP1 vs untreated [2] [log2]
1 | ASPH (protein, UniProt Q12797 1-758, looked up) Aspartyl/asparaginyl …: MAQRKNAKSSGNSSSSGSGSGSTSAGSSSPGARRETKHGGHKNGRKGGLSGTSFFTWFMVIALLGVWTSVAVVWFDLVDYEEVLGKLGIYDADGDGDFDVDDAKVLLGLKERSTSEPAVPPEEAEPHTEPEEQVPVEAEPQNIEDEAKEQIQSLLHEMVHAEHVEGEDLQQEDGPTGEPQQEDDEFLMATDVDDRFETLEPEVSHEETEHSYHVEETVSQDCNQDMEEMMSEQENPDSSEPVVEDERLHHDTDDVTYQVYEEQAVYEPLENEGIEITEVTAPPEDNPVEDSQVIVEEVSIFPVEEQQEVPPETNRKTDDPEQKAKVKKKKPKLLNKFDKTIKAELDAAEKLRKRGKIEEAVNAFKELVRKYPQSPRARYGKAQCEDDLAEKRRSNEVLRGAIETYQEVASLPDVPADLLKLSLKRRSDRQQFLGHMRGSLLTLQRLVQLFPNDTSLKNDLGVGYLLIGDNDNAKKVYEEVLSVTPNDGFAKVHYGFILKAQNKIAESIPYLKEGIESGDPGTDDGRFYFHLGDAMQRVGNKEAYKWYELGHKRGHFASVWQRSLYNVNGLKAQPWWTPKETGYTELVKSLERNWKLIRDEGLAVMDKAKGLFLPEDENLREKGDWSQFTLWQQGRRNENACKGAPKTCTLLEKFPETTGCRRGQIKYSIMHPGTHVWPHTGPTNCRLRMHLGLVIPKEGCKIRCANETKTWEEGKVLIFDDSFEHEVWQDASSFRLIFIVDVWHPELTPQQRRSLPAI | 0.9544 | 0.7413
2 | ATXN2L (protein, UniProt Q8WWM7 1-1075, looked up) Ataxin-2-like protein: MLKPQPLQQPSQPQQPPPTQQAVARRPPGGTSPPNGGLPGPLATSAAPPGPPAAASPCLGPVAAAGSGLRRGAEGILAPQPPPPQQHQERPGAAAIGSARGQSTGKGPPQSPVFEGVYNNSRMLHFLTAVVGSTCDVKVKNGTTYEGIFKTLSSKFELAVDAVHRKASEPAGGPRREDIVDTMVFKPSDVMLVHFRNVDFNYATKDKFTDSAIAMNSKVNGEHKEKVLQRWEGGDSNSDDYDLESDMSNGWDPNEMFKFNEENYGVKTTYDSSLSSYTVPLEKDNSEEFRQRELRAAQLAREIESSPQYRLRIAMENDDGRTEEEKHSAVQRQGSGRESPSLASREGKYIPLPQRVREGPRGGVRCSSSRGGRPGLSSLPPRGPHHLDNSSPGPGSEARGINGGPSRMSPKAQRPLRGAKTLSSPSNRPSGETSVPPPPAVGRMYPPRSPKSAAPAPISASCPEPPIGSAVPTSSASIPVTSSVSDPGVGSISPASPKISLAPTDVKELSTKEPGRTLEPQELARIAGKVPGLQNEQKRFQLEELRKFGAQFKLQPSSSPENSLDPFPPRILKEEPKGKEKEVDGLLTSEPMGSPVSSKTESVSDKEDKPPLAPSGGTEGPEQPPPPCPSQTGSPPVGLIKGEDKDEGPVAEQVKKSTLNPNAKEFNPTKPLLSVNKSTSTPTSPGPRTHSTPSIPVLTAGQSGLYSPQYISYIPQIHMGPAVQAPQMYPYPVSNSVPGQQGKYRGAKGSLPPQRSDQHQPASAPPMMQAAAAAGPPLVAATPYSSYIPYNPQQFPGQPAMMQPMAHYPSQPVFAPMLQSNPRMLTSGSHPQAIVSSSTPQYPSAEQPTPQALYATVHQSYPHHATQLHAHQPQPATTPTGSQPQSQHAAPSPVQHQAGQAPHLGSGQPQQNLYHPGALTGTPPSLPPGPSAQSPQSSFPQPAAVYAIHHQQLPHGFTNMAHVTQAHVQTGITAAPPPHPGAPHPPQVMLLHPPQSHGGPPQGAVPQSGVPALSASTPSPYPYIGHPQGEQPGQAPGFPGGADDRIREFSLAGGIWHGRAEGLQVGQDARVLGGE | 0.1548 | 0.7492
3 | HNRNPF (protein, UniProt P52597 1-415, looked up) Heterogeneous nuclear …: MMLGPEGGEGFVVKLRGLPWSCSVEDVQNFLSDCTIHDGAAGVHFIYTREGRQSGEAFVELGSEDDVKMALKKDRESMGHRYIEVFKSHRTEMDWVLKHSGPNSADSANDGFVRLRGLPFGCTKEEIVQFFSGLEIVPNGITLPVDPEGKITGEAFVQFASQELAEKALGKHKERIGHRYIEVFKSSQEEVRSYSDPPLKFMSVQRPGPYDRPGTARRYIGIVKQAGLERMRPGAYSTGYGGYEEYSGLSDGYGFTTDLFGRDLSYCLSGMYDHRYGDSEFTVQSTTGHCVHMRGLPYKATENDIYNFFSPLNPVRVHIEIGPDGRVTGEADVEFATHEEAVAAMSKDRANMQHRYIELFLNSTTGASNGAYSSQVMQGMGVSAAQATYSGLESQSVSGCYGAGYSGQNSMGGYD | -0.6522 | 0.766
4 | C4BPA (protein, UniProt P04003 49-597, looked up) C4b-binding protein alpha …: NCGPPPTLSFAAPMDITLTETRFKTGTTLKYTCLPGYVRSHSTQTLTCNSDGEWVYNTFCIYKRCRHPGELRNGQVEIKTDLSFGSQIEFSCSEGFFLIGSTTSRCEVQDRGVGWSHPLPQCEIVKCKPPPDIRNGRHSGEENFYAYGFSVTYSCDPRFSLLGHASISCTVENETIGVWRPSPPTCEKITCRKPDVSHGEMVSGFGPIYNYKDTIVFKCQKGFVLRGSSVIHCDADSKWNPSPPACEPNSCINLPDIPHASWETYPRPTKEDVYVVGTVLRYRCHPGYKPTTDEPTTVICQKNLRWTPYQGCEALCCPEPKLNNGEITQHRKSRPANHCVYFYGDEISFSCHETSRFSAICQGDGTWSPRTPSCGDICNFPPKIAHGHYKQSSSYSFFKEEIIYECDKGYILVGQAKLSCSYSHWSAPAPQCKALCRKPELVNGRLSVDKDQYVEPENVTIQCDSGYGVVGPQSITCSGNRTWYPEVPKCEWETPEGCEQVLTGKRLMQCLPNPEDVKMALEVYKLSLEIEQLELQRDSARQSTLDKEL | -1.682 | 0.7487
5 | FLOT2 (protein, UniProt Q14254 2-428, looked up) Flotillin-2: GNCHTVGPNEALVVSGGCCGSDYKQYVFGGWAWAWWCISDTQRISLEIMTLQPRCEDVETAEGVALTVTGVAQVKIMTEKELLAVACEQFLGKNVQDIKNVVLQTLEGHLRSILGTLTVEQIYQDRDQFAKLVREVAAPDVGRMGIEILSFTIKDVYDKVDYLSSLGKTQTAVVQRDADIGVAEAERDAGIREAECKKEMLDVKFMADTKIADSKRAFELQKSAFSEEVNIKTAEAQLAYELQGAREQQKIRQEEIEIEVVQRKKQIAVEAQEILRTDKELIATVRRPAEAEAHRIQQIAEGEKVKQVLLAQAEAEKIRKIGEAEAAVIEAMGKAEAERMKLKAEAYQKYGDAAKMALVLEALPQIAAKIAAPLTKVDEIVVLSGDNSKVTSEVNRLLAELPASVHALTGVDLSKIPLIKKATGVQV | -0.7491 | 0.7666
6 | NUFIP2 (protein, UniProt Q7Z417 1-695, looked up) FMR1-interacting protein …: MEEKPGQPQPQHHHSHHHPHHHPQQQQQQPHHHHHYYFYNHSHNHHHHHHHQQPHQYLQHGAEGSPKAQPKPLKHEQKHTLQQHQETPKKKTGYGELNGNAGEREISLKNLSSDEATNPISRVLNGNQQVVDTSLKQTVKANTFGKAGIKTKNFIQKNSMDKKNGKSYENKSGENQSVDKSDTIPIPNGVVTNNSGYITNGYMGKGADNDGSGSESGYTTPKKRKARRNSAKGCENLNIVQDKIMQQETSVPTLKQGLETFKPDYSEQKGNRVDGSKPIWKYETGPGGTSRGKPAVGDMLRKSSDSKPGVSSKKFDDRPKGKHASAVASKEDSWTLFKPPPVFPVDNSSAKIVPKISYASKVKENLNKTIQNSSVSPTSSSSSSSSTGETQTQSSSRLSQVPMSALKSVTSANFSNGPVLAGTDGNVYPPGGQPLLTTAANTLTPISSGTDSVLQDMSLTSAAVEQIKTSLFIYPSNMQTMLLSTAQVDLPSQTDQQNLGDIFQNQWGLSFINEPSAGPETVTGKSSEHKVMEVTFQGEYPATLVSQGAEIIPSGTEHPVFPKAYELEKRTSPQVLGSILKSGTTSESGALSLEPSHIGDLQKADTSSQGALVFLSKDYEIESQNPLASPTNTLLGSAKEQRYQRGLERNDSWGSFDLRAAIVYHTKEMESIWNLQKQDPKRIITYNEAMDSPDQ | 0.8112 | 0.7682
7 | MISP (protein, UniProt Q8IVT2 1-679, looked up) Mitotic interactor and …: MDRVTRYPILGIPQAHRGTGLVLDGDTSYTYHLVCMGPEASGWGQDEPQTWPTDHRAQQGVQRQGVSYSVHAYTGQPSPRGLHSENREDEGWQVYRLGARDAHQGRPTWALRPEDGEDKEMKTYRLDAGDADPRRLCDLERERWAVIQGQAVRKSSTVATLQGTPDHGDPRTPGPPRSTPLEENVVDREQIDFLAARQQFLSLEQANKGAPHSSPARGTPAGTTPGASQAPKAFNKPHLANGHVVPIKPQVKGVVREENKVRAVPTWASVQVVDDPGSLASVESPGTPKETPIEREIRLAQEREADLREQRGLRQATDHQELVEIPTRPLLTKLSLITAPRRERGRPSLYVQRDIVQETQREEDHRREGLHVGRASTPDWVSEGPQPGLRRALSSDSILSPAPDARAADPAPEVRKVNRIPPDAYQPYLSPGTPQLEFSAFGAFGKPSSLSTAEAKAATSPKATMSPRHLSESSGKPLSTKQEASKPPRGCPQANRGVVRWEYFRLRPLRFRAPDEPQQAQVPHVWGWEVAGAPALRLQKSQSSDLLERERESVLRREQEVAEERRNALFPEVFSPTPDENSDQNSRSSSQASGITGSYSVSESPFFSPIHLHSNVAWTVEDPVDSAPPGQRKKEQWYAGINPSDGINSEVLEAIRVTRHKNAMAERWESRIYASEEDD | -0.2245 | 0.7397
8 | ARHGEF2 (protein, UniProt Q92974 1-986, looked up) Rho guanine nucleotide …: MSRIESLTRARIDRSRELASKTREKEKMKEAKDARYTNGHLFTTISVSGMTMCYACNKSITAKEALICPTCNVTIHNRCKDTLANCTKVKQKQQKAALLKNNTALQSVSLRSKTTIRERPSSAIYPSDSFRQSLLGSRRGRSSLSLAKSVSTTNIAGHFNDESPLGLRRILSQSTDSLNMRNRTLSVESLIDEAEVIYSELMSDFEMDEKDFAADSWSLAVDSSFLQQHKKEVMKQQDVIYELIQTELHHVRTLKIMTRLFRTGMLEELHLEPGVVQGLFPCVDELSDIHTRFLSQLLERRRQALCPGSTRNFVIHRLGDLLISQFSGPSAEQMCKTYSEFCSRHSKALKLYKELYARDKRFQQFIRKVTRPAVLKRHGVQECILLVTQRITKYPLLISRILQHSHGIEEERQDLTTALGLVKELLSNVDEGIYQLEKGARLQEIYNRMDPRAQTPVPGKGPFGREELLRRKLIHDGCLLWKTATGRFKDVLVLLMTDVLVFLQEKDQKYIFPTLDKPSVVSLQNLIVRDIANQEKGMFLISAAPPEMYEVHTASRDDRSTWIRVIQQSVRTCPSREDFPLIETEDEAYLRRIKMELQQKDRALVELLREKVGLFAEMTHFQAEEDGGSGMALPTLPRGLFRSESLESPRGERLLQDAIREVEGLKDLLVGPGVELLLTPREPALPLEPDSGGNTSPGVTANGEARTFNGSIELCRADSDSSQRDRNGNQLRSPQEEALQRLVNLYGLLHGLQAAVAQQDTLMEARFPEGPERREKLCRANSRDGEAGRAGAAPVAPEKQATELALLQRQHALLQEELRRCRRLGEERATEAGSLEARLRESEQARALLEREAEEARRQLAALGQTEPLPAEAPWARRPVDPRRRSLPAGDALYLSFNPPQPSRGTDRLDLPVTTRSVHRNFEDRERQELGSPEERLQDSSDPDTGSEEEGSSRLSPPHSPRDFTRMQDIPEETESRDGEAVASES | 1.2 | 0.772
